Results from patent US20150064714A1, “Polypeptides containing a modified fragment of the peptide IF1” (LIFESEARCH, priority 2013, published 2015).
No end group written: not given here. *: point of attachment. MTSL = spin label, CC1(C)C=C(CS*)C(C)(C)N1[O]

How the values were obtained:
[1] = test system: F1-ATPase or SMP (F0F1-ATPase); test: Measurement of the affinity of a labelled polypeptide for the ATPase (kinetics of inhibition of ATP hydrolysis, NADH disappearance at 340 nm); format: biochemical; settings: kinetic results; 25° C., pH 6.5; polypeptide 15 nM to 2 μM
Method: The hydrolysis of ATP by F1-ATPase or SMP (F0F1-ATPase) was measured according to the reaction illustrated below by following the disappearance of NADH over time at 340 nm.
This reaction is carried out in a thermostatically controlled vessel (25° C.) in which the reaction medium pH 6.5 (50 mM MES, 20 mM KCl, 1 mM MgCl2, 0.4 mM NADH, 1 mM PEP, 20 units/mL pyruvate kinase and 50 unit/mL lactate dehydrogenase) is stirred. In the case of measurement of hydrolysis of ATP by the SMPs, the vessel also contains 3 μM antimycin and 3 μM FCCP.
After recording for 2 to 4 minutes, a labelled polypeptide of the invention is injected into the measurement vessel at a concentration range of 15 nM to 2 μM and the ATPase activity decreases. The recordings are analysed and adjusted with a decreasing monoexponential function (equation 1 shown below) corresponding to the decline in the ATPase activity.
By plotting the values of kapp obtained as a function of the concentration of IF1, the formation rate constant (kon) and dissociation rate constant (koff) of the inhibited complex F1ATPase/IF1 are determined according to the following equation: kapp=kon[I]+koff
The relationship between the ratio V(I)/V(0) and the concentration of labelled polypeptide of the invention are linked according to the following equation:
V(I)/V(0)=Vr+(1−Vr)/(1+[I]/k1),
in which Vr is the fraction of V0 insensitive to IF1 inhibition.

[2] = molecular target: ATPase (Homo sapiens, UniProt P06576+P25705); settings: fragment of IF1 of less than 34 amino acids in a fusion protein; cited from earlier work
[3] = molecular target: F1-ATPase (Bos taurus, UniProt P00829+P19483); settings: point mutations of bovine IF1; cited from earlier work

For “SEQ ID NO: 25: cysteine-containing peptide: cysteine inserted into the median region of SEQ ID NO: 9, for labelling with the spin label MTSL (SEDSFVKRARATEDWFVRQREKEC(MTSL)QLRHLKEQLEKQRKK)”, the “affinity for ATP synthase compared to that of natural IF1” value [1] was “better affinity for ATP synthase”.

For “fragment constituted by amino acid 14 to amino acid 46 of IF1: fragment of the protein IF1 in a fusion protein of US 2004/0072739 (AVRDAGGAFGKREQAEEERYFRARAKEQLAALK; UniProt P01096 39-71, looked up, fragment)”, the ATPase inhibiting activity [2] is given as “better ATPase inhibiting activity”.

B1: Y33W: modified bovine IF1 containing the point mutation Y33W (Bason et al.) (protein, UniProt P01096 26-109, looked up, variant Y33W)
ATPase inhibitor, …: GSESGDNVRSSAGAVRDAGGAFGKREQAEEERWFRARAKEQLAALKKHHENEISHHAKEIERLQKEIERHKQSIKKLKQSEDDD
For B1, the “affinity for F1-ATPase compared to the natural bovine IF1” value [3] is given as “better affinity”.
